2 proteins from article PMC5703498, “Plant-type phytoene desaturase: Functional evaluation of structural implications” (PLoS ONE, 2017) can be followed below.

The series concerns the molecule itself. Kind of series: SEC; gel permeation chromatography (GPC) of the purified protein on a Superose 6 10/300 GL column, elution monitored at 280 nm, carried out as in ref. 6. (In general: In gel filtration, larger molecules generally elute earlier.)

B1: Oryza sativa phytoene desaturase with C-terminal His6 (OsPDS-His6), wild type (enzyme, UniProt A2XDA1 88-578, looked up)
chain: AGQLSSFFRNSEQPTKPLQVVIAGAGLAGLSTAKYLADAGHKPILLEARDVLGGKIAAWKDEDGDWYETGLHIFFGAYPNIQNLFGELGINDRLQWKEHSMIFAMPNKPGEFSRFDFPETLPAPLNGIWAILRNNEMLTWPEKVKFALGLLPAMVGGQAYVEAQDGFTVSEWMKKQGVPDRVNDEVFIAMSKALNFINPDELSMQCILIALNRFLQEKHGSKMAFLDGNPPERLCMPIVDHVRSLGGEVRLNSRIQKIELNPDGTVKHFALTDGTQITGDAYVFATPVDILKLLVPQEWKEISYFKKLEKLVGVPVINVHIWFDRKLKNTYDHLLFSRSSLLSVYADMSVTCKEYYDPNRSMLELVFAPAEEWVGRSDTEIIEATMQELAKLFPDEIAADQSKAKILKYHVVKTPRSVYKTIPDCEPCRPLQRSPIEGFYLAGDYTKQKYLASMEGAVLSGKLCAQSVVEDYKMLSRRSLKSLQSEVPVAS
notes: residue numbers count on the immature protein A2XDA1.2 including the transit peptide; the GPC done here is described only as 'homooligomer'; Cloned through an NdeI site, so a start methionine probably precedes residue 88 (surmised); also called rice PDS-His6; wild type PDS; not shown: His6, C-terminal, kept
With B1, the binding result is “binds”.

B2: Oryza sativa phytoene desaturase Arg300Ser mutant (Arg300Ser PDS) (enzyme, UniProt A2XDA1 88-578, looked up)
chain: AGQLSSFFRNSEQPTKPLQVVIAGAGLAGLSTAKYLADAGHKPILLEARDVLGGKIAAWKDEDGDWYETGLHIFFGAYPNIQNLFGELGINDRLQWKEHSMIFAMPNKPGEFSRFDFPETLPAPLNGIWAILRNNEMLTWPEKVKFALGLLPAMVGGQAYVEAQDGFTVSEWMKKQGVPDRVNDEVFIAMSKALNFINPDELSMQCILIALNSFLQEKHGSKMAFLDGNPPERLCMPIVDHVRSLGGEVRLNSRIQKIELNPDGTVKHFALTDGTQITGDAYVFATPVDILKLLVPQEWKEISYFKKLEKLVGVPVINVHIWFDRKLKNTYDHLLFSRSSLLSVYADMSVTCKEYYDPNRSMLELVFAPAEEWVGRSDTEIIEATMQELAKLFPDEIAADQSKAKILKYHVVKTPRSVYKTIPDCEPCRPLQRSPIEGFYLAGDYTKQKYLASMEGAVLSGKLCAQSVVEDYKMLSRRSLKSLQSEVPVAS
notes: residue numbers count on the immature protein A2XDA1.2 including the transit peptide; Same construct as m1 apart from the mutation; about 70% in the FAD holo form, like the wild type; also called mutant enzyme Arg300Ser; source: E. coli, purified
B2: the binding result is on record as “binds”.
